In this experiment the target is T1, human CD39 naturally expressed on MOLP-8 cells (human, UniProt P49961 1-510).
T1 construct: whole, on cells; also called CD39 antigen; CD39 protein
T1 sequence (looked up): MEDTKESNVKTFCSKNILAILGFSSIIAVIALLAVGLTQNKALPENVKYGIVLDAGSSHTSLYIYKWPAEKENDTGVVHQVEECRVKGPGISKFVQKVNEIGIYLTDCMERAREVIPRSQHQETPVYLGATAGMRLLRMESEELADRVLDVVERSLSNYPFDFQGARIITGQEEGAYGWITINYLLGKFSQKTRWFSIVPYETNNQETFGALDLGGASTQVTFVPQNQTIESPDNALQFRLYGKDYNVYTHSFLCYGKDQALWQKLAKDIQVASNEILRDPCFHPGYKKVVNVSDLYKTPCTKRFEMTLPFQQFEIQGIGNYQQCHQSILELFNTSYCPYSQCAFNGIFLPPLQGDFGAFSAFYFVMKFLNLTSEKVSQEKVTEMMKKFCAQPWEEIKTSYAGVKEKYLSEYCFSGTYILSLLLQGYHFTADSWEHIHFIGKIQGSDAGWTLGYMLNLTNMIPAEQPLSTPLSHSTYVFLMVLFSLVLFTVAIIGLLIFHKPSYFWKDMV
The experiment in a line: flow cytometry on MOLP-8 cells, FITC goat anti-human H+L secondary antibody. (A flow cytometer gives signals particle by particle.)

B1: humanized monoclonal antibody F314 (antibody, human IgG4 S228P, kappa, V domains shown)
VH: QVQLVQSGAEVKKPGASVKVSCKASGYTFTNYWMYWVRQRPGRGLEWIGRIAPSSGATKYNEKFKNRATLTVDTSISTAYMELSRLRSDDTAVYYCARSGIYYDYDWFFDVWGQGTTVTVSS
VL: DIQMTQSPSSLSASVGDRVTITCKASQDINKYIGWYQQKPGKAPKLLIHYTSTLQPGVPSRFSGSGSGRDYTFTISSLQPEDIATYYCLQYHALLFTFGQGTKLEIKR
notes: Expressed in CHO-S cells; also called F314 monoclonal antibody; naked antibody
On to B1, for which the binding result was “binds”.

These data come from patent US20250049941A1, “ANTI-CD39 Antibody-Drug Conjugate And Use Thereof” (priority 2021, published 2025).
